Data: patent publication US20250341513A1, “Bordetella T Cells Epitopes, Megapools and Uses Thereof” (LA JOLLA INSTITUTE FOR IMMUNOLOGY, priority 2022, published 2025)

Tested on: CD4+ T cells
Assay: BP genome-wide peptide library screening by ex vivo AIM assay; epitope and antigen (ORF) reactivity and donor recognition
Type: cell-based, human
Conditions: for frequency of donor recognition: entire cohort (n=40); for magnitude, % of total response: sum of reactivity of individual epitopes per ORF/antigen across entire cohort (n=40), FIG. 3; for % of Donor response / % of Total magnitude: immunodominant antigens (ORFs); for % of Donor response: frequency of donors recognising the antigen; for % of Total magnitude: share of total CD4+ T cell response magnitude in the genome-wide screen

Molecule	frequency of donor recognition	magnitude, % of total response	% of Donor response [%]	% of Total magnitude [%]
filamentous hemagglutinin [FHA]	45.0 % of donors	2.12 % of total response	–	–
pertactin (protein, UniProt P14283 35-910, looked up, aP vaccine antigen of B. pertussis) Pertactin autotransporter: DWNNQSIVKTGERQHGIHIQGSDPGGVRTASGTTIKVSGRQAQGILLENPAAELQFRNGSVTSSGQLSDDGIRRFLGTVTVKAGKLVADHATLANVGDTWDDDGIALYVAGEQAQASIADSTLQGAGGVQIERGANVTVQRSAIVDGGLHIGALQSLQPEDLPPSRVVLRDTNVTAVPASGAPAAVSVLGASELTLDGGHITGGRAAGVAAMQGAVVHLQRATIRRGDAPAGGAVPGGAVPGGAVPGGFGPGGFGPVLDGWYGVDVSGSSVELAQSIVEAPELGAAIRVGRGARVTVSGGSLSAPHGNVIETGGARRFAPQAAPLSITLQAGAHAQGKALLYRVLPEPVKLTLTGGADAQGDIVATELPSIPGTSIGPLDVALASQARWTGATRAVDSLSIDNATWVMTDNSNVGALRLASDGSVDFQQPAEAGRFKVLTVNTLAGSGLFRMNVFADLGLSDKLVVMQDASGQHRLWVRNSGSEPASANTLLLVQTPLGSAATFTLANKDGKVDIGTYRYRLAANGNGQWSLVGAKAPPAPKPAPQPGPQPPQPPQPQPEAPAPQPPAGRELSAAANAAVNTGGVGLASTLWYAESNALSKRLGELRLNPDAGGAWGRGFAQRQQLDNRAGRRFDQKVAGFELGADHAVAVAGGRWHLGGLAGYTRGDRGFTGDGGGHTDSVHVGGYATYIADSGFYLDATLRASRLENDFKVAGSDGYAVKGKYRTHGVGASLEAGRRFTHADGWFLEPQAELAVFRAGGGAYRAANGLRVRDEGGSSVLGRLGLEVGKRIELAGGRQVQPYIKASVLQEFDGAGTVHTNGIAHRTELRGTRAELGLGMAAALGRGHSLYASYEYSKGPKLAMPWTFHAGYRYSW	40 % of donors	1.33 % of total response	–	–
Fim 3: fimbrial protein 3, aP vaccine antigen (protein, UniProt P17835 26-204, looked up) Serotype 3 fimbrial subunit: NDGTIVITGSISDQTCVIEEPSTLNHIKVVQLPKISKNALRNDGDTAGATPFDIKLKECPQALGALKLYFEPGITTNYDTGDLIAYKQTYNASGNGNLSTVSSATKAKGVEFRLANLNGQHIRMGTDKTTQAAQTFTGKVTNGSKSYTLRYLASYVKKPKEDVDAAQITSYVGFSVVYP	12.5 % of donors	0.24 % of total response	–	–
Fim 2: fimbrial protein 2, aP vaccine antigen (protein, UniProt P05788 27-207, looked up) Serotype 2 fimbrial subunit: DDGTIVITGTITDTTCVIEDPSGPNHTKVVQLPKISKNALKANGDQAGRTPFIIKLKDCPSSLGNGVKAYFEPGPTTDYSTGDLRAYKMVYATNPQTQLSNITAATEAQGVQVRISNLNDSKITMGANEATQQAAGFDPEVQTGGTSRTVTMRYLASYVKKNGDVEASAITTYVGFSVVYP	5 % of donors	0.09 % of total response	–	–
Membrane protein insertase YidC (protein, UniProt P65622 1-563, looked up) Membrane protein insertase …: MDIRRTVLWMIFSFSLLLLWNNWQIHNGKPSLFGGPAPEAAATQQPKADANGTAASSTASIPSSPAAAPAAASVPGAAAPAAAKSEQVVITTDVLRLTFDSNGAQLIRAELLKYPSSSQSDKPTVLMDRSADLVYVAQTGVVGAPQGESFPTHQTPFHLVSSERSLTGDTLDVVFEAESGGLKVTKTYTLHRGRYDVDVRHAMANTGGAPLNPALYLQLERDGTDPAGTSSFYHTFTGVAVYSEQDKFQKVTFSDIEKKKGTYIKQADNGWIGIVQHYFATAWIPAQGKQRTNELLQVQQNLYAARTIEAVGTIAPGSSANVDAHLWVGPQDQKAMAAVAPGLELVVDYGWLTIIAKPLFTLMTWLHGLLGNWGWTIVALTVIIKAVFFPLAAASYRSMARMKQVAPRLQALKEKYGDDRQKLNQAMMEMYRTEKINPLGGCLPMVVQIPVFIALYWVLLASVEMRGAPWILWVHDLSVRDPFFILPAIMMATMFLQIKLNPTPPDPVQAKVMMIMPLVFGGMMFFFPAGLVLYWCVNNTLSIAQQWTITRNLERQAAAAANR	–	–	17.5	1.35
Virulence sensor protein BvgS (protein, UniProt P16575 33-1238, looked up) Virulence sensor protein BvgS: SQELTLVGKAAVPDVEVALDGDDWRWLARKRVLTLGVYAPDIPPFDVTYGERYEGLTADYMAIIAHNLGMQAKVLRYPTREQALSALESGQIDLIGTVNGTDGRQQSLRLSVPYAADHPVIVMPIGARHVPASNLAGQRLAVDINYLPKETLARAYPQATLHYFPSSEQALAAVAYGQADVFIGDALTTSHLVSQSYFNDVRVVAPAHIATGGESFGVRADNTRLLRVVNAVLEAIPPSEHRSLIYRWGLGSSISLDFAHPAYSAREQQWMADHPVVKVAVLNLFAPFTLFRTDEQFGGISAAVLQLLQLRTGLDFEIIGVDTVEELIAKLRSGEADMAGALFVNSARESFLSFSRPYVRNGMVIVTRQDPDAPVDADHLDGRTVALVRNSAAIPLLQRRYPQAKVVTADNPSEAMLMVANGQADAVVQTQISASYYVNRYFAGKLRIASALDLPPAEIALATTRGQTELMSILNKALYSISNDELASIISRWRGSDGDPRTWYAYRNEIYLLIGLGLLSALLFLSWIVYLRRQIRQRKRAERALNDQLEFMRVLIDGTPNPIYVRDKEGRMLLCNDAYLDTFGVTADAVLGKTIPEANVVGDPALAREMHEFLLTRVAAEREPRFEDRDVTLHGRTRHVYQWTIPYGDSLGELKGIIGGWIDITERAELLRKLHDAKESADAANRAKTTFLATMSHEIRTPMNAIIGMLELALLRPTDQEPDRQSIQVAYDSARSLLELIGDILDIAKIEAGKFDLAPVRTALRVLPEGAIRVFDGLARQKGIELVLKTDIVGVDDVLIDPLRMKQVLSNLVGNAIKFTTEGQVVLAVTARPDGDAAHVQFSVSDTGCGISEADQRQLFKPFSQVGGSAEAGPAPGTGLGLSISRRLVELMGGTLVMRSAPGVGTTVSVDLRLTMVEKSVQAAPPAAATAATPSKPQVSLRVLVVDDHKPNLMLLRQQLDYLGQRVIAADSGEAALALWREHAFDVVITDCNMPGISGYELARRIRAAEAAPGYGRTRCILFGFTASAQMDEAQRCRAAGMDDCLFKPIGVDALRQRLNEAVARAALPTPPSPQAAAPATDDATPTAFSAESILALTQNDEALIRQLLEEVIRTNRADVDQLQKLHQQADWPKVSDMAHRLAGGARVVDAKAMIDTVLALEKKAQGQAGPSPEIDGLVRTLAAQSAALETQLRAWLEQRPHQDQP	–	–	15	0.76
BrkA autotransporter (protein, UniProt Q45340 43-1010, looked up) BrkA autotransporter: QAPQPPVAGAPHAQDAGQEGEFDHRDNTLIAVFDDGVGINLDDDPDELGETAPPTLKDIHISVEHKNPMSKPAIGVRVSGAGRALTLAGSTIDATEGGIPAVVRRGGTLELDGVTVAGGEGMEPMTVSDAGSRLSVRGGVLGGEAPGVGLVRAAQGGQASIIDATLQSILGPALIADGGSISVAGGSIDMDMGPGFPPPPPPLPGAPLAAHPPLDRVAAVHAGQDGKVTLREVALRAHGPQATGVYAYMPGSEITLQGGTVSVQGDDGAGVVAGAGLLDALPPGGTVRLDGTTVSTDGANTDAVLVRGDAARAEVVNTVLRTAKSLAAGVSAQHGGRVTLRQTRIETAGAGAEGISVLGFEPQSGSGPASVDMQGGSITTTGNRAAGIALTHGSARLEGVAVRAEGSGSSAAQLANGTLVVSAGSLASAQSGAISVTDTPLKLMPGALASSTVSVRLTDGATAQGGNGVFLQQHSTIPVAVALESGALARGDIVADGNKPLDAGISLSVASGAAWHGATQVLQSATLGKGGTWVVNADSRVQDMSMRGGRVEFQAPAPEASYKTLTLQTLDGNGVFVLNTNVAAGQNDQLRVTGRADGQHRVLVRNAGGEADSRGARLGLVHTQGQGNATFRLANVGKAVDLGTWRYSLAEDPKTHVWSLQRAGQALSGAANAAVNAADLSSIALAESNALDKRLGELRLRADAGGPWARTFSERQQISNRHARAYDQTVSGLEIGLDRGWSASGGRWYAGGLLGYTYADRTYPGDGGGKVKGLHVGGYAAYVGDGGYYLDTVLRLGRYDQQYNIAGTDGGRVTADYRTSGAAWSLEGGRRFELPNDWFAEPQAEVMLWRTSGKRYRASNGLRVKVDANTATLGRLGLRFGRRIALAGGNIVQPYARLGWTQEFKSTGDVRTNGIGHAGAGRHGRVELGAGVDAALGKGHNLYASYEYAAGDRINIPWSFHAGYRYSF	–	–	20	0.44
S-adenosylmethionine--tRNA ribosyltransferase-isomerase QueA (protein, UniProt Q7VZ81 1-347, looked up) S-adenosylmethionine:tRNA …: MPTPLTLADFDYHLPPELIAQSPAAERGGSRLLHLDAASRLHDRRFPDLAGLLRPHDLLVFNDTRVIKARLTGQKATGGKVEVLVERITAPDRALAHVRASKSPGPGMRLRLAEAFEAEVLGREGELFDLRFPAPVLDLLDAHGATPLPPYITHAADATDERRYQTVYAREPGAVAAPTAGLHFDQPMLEQLAAQGVQRAFVTLHVGAGTFQPVRVQNLAEHIMHAEWYTVPEATVAAIARARAHGGRIVAVGTTSVRALESAAAQAQDGPLAAAQGDTRLFITPGYRYRAVDALLTNFHLPQSTLLMLVSALAGVEPIRRAYAHAVAERYRFFSYGDAMFIETPAP	–	–	17.5	0.27
